Source: IntAct's records for PubMed 17679699

B1: Catenin beta-1 (Homo sapiens), P35222 (parent)
chain: MATQADLMELDMAMEPDRKAAVSHWQQQSYLDSGIHSGATTTAPSLSGKGNPEEEDVDTSQVLYEWEQGFSQSFTQEQVADIDGQYAMTRAQRVRAAMFPETLDEGMQIPSTQFDAAHPTNVQRLAEPSQMLKHAVVNLINYQDDAELATRAIPELTKLLNDEDQVVVNKAAVMVHQLSKKEASRHAIMRSPQMVSAIVRTMQNTNDVETARCTAGTLHNLSHHREGLLAIFKSGGIPALVKMLGSPVDSVLFYAITTLHNLLLHQEGAKMAVRLAGGLQKMVALLNKTNVKFLAITTDCLQILAYGNQESKLIILASGGPQALVNIMRTYTYEKLLWTTSRVLKVLSVCSSNKPAIVEAGGMQALGLHLTDPSQRLVQNCLWTLRNLSDAATKQEGMEGLLGTLVQLLGSDDINVVTCAAGILSNLTCNNYKNKMMVCQVGGIEALVRTVLRAGDREDITEPAICALRHLTSRHQEAEMAQNAVRLHYGLPVVVKLLHPPSHWPLIKATVGLIRNLALCPANHAPLREQGAIPRLVQLLVRAHQDTQRRTSMGGTQQQFVEGVRMEEIVEGCTGALHILARDVHNRIVIRGLNTIPLFVQLLYSPIENIQRVAAGVLCELAQDKEAAEAIEAEGATAPLTELLHSRNEGVATYAAAVLFRMSEDKPQDYKKRLSVELTSSLFRTEPMAWNETADLGLDIGAQGEPLGYRQDDPSYRSFHSGGYGQDALGMDPMMEHEMGGHHPGADYPVDGLPDLGHAQDLMDGLPPGDSNQLAWFDTDL
partner: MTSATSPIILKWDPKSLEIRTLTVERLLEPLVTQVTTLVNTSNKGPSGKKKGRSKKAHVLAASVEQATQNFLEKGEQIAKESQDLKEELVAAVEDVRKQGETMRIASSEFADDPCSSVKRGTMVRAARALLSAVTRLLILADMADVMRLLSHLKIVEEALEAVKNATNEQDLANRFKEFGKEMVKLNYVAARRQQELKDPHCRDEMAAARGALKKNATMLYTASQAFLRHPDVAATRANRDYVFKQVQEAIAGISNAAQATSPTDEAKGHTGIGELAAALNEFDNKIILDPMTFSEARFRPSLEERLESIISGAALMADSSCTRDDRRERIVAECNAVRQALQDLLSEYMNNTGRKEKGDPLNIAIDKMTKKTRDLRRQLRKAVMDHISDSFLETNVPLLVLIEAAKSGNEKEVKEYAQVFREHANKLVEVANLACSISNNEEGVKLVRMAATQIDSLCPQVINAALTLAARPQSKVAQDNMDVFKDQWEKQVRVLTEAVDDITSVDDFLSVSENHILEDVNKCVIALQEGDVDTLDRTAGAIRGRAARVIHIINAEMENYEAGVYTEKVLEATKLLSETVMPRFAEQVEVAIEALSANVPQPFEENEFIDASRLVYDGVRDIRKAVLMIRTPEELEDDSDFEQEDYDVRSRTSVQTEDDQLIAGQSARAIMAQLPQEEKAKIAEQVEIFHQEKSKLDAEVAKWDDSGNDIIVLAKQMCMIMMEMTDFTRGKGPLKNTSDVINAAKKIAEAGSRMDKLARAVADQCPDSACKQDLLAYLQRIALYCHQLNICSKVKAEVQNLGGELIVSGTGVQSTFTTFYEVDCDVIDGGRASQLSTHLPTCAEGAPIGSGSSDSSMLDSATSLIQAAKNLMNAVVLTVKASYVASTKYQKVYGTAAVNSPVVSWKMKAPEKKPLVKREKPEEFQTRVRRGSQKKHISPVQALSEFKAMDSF

Variants of: B1
Details: with ctna2_human CTNNA2, P26232

Variant | effect of a mutation on the interaction
L132A | disrupting interaction strength
